In US7172865B2, “Rapid and sensitive assay for the detection and quantification of coregulators of nucleic acid binding factors” (Saint Louis University, priority 2001, dated 2007):

What was measured:
[1] = system: CAP5/CAP3 and CAP1/CAP4 duplexes; assay: two-color simultaneous detection, coumarin-labeled CAP constructs; format: binding; conditions: excitation 433 nm, one protein only
Description: The compatibility of the assays described in the instant invention with a variety of fluorescence probes emitting at different wavelengths allows for the designing of variations in which two or more proteins may be detected simultaneously. Nucleic acid constructs specific for each of the proteins to be detected may be labeled with probes that emit light at different wavelengths. In this example, the reaction mixture contained nucleic acid constructs labeled with 7-diethylaminocoumarin-3-carboxylic acid for detecting CAP protein (described in EXAMPLE 2) and nucleic acid constructs labeled with fluorescein for detecting TrpR protein (described in EXAMPLE 6). Specifically, 100 nM CAP5/CAP3, 120 nM CAP1/CAP4, 100 nM TRP2/TRP3, and 120 nM TRP1/TRP4 duplexes were present in the reaction mixture.
The fluorescence spectra with the excitation at 433 nm (excitation of 7-diethylaminocoumarin-3-carbo acid, FIG. 17A) and with the excitation at 490 nm (excitation of fluorescein, FIG. 17B) were recorded in the absence of the proteins (curves 1), in the presence of CAP only (curves 2), in the presence of TrpR only (curves 3), and in the presence of both CAP and TrpR (curves 4). In the presence of only CAP there was no change in the fluorescein signal (FIG. 17B, curve 2) whereas about 60% quenching of the 7-diethylaminocoumarin-3-carbox acid signal was observed (FIG. 17A, curve 2). […]

[2] = system: CAP6/CAP1 and CAP2/CAP3 nucleic acid duplexes; assay: CAP assay with coumarin donor and fluorescein acceptor; format: binding, E. coli; conditions: 0 to 150 nM CAP, excitation 433 nm
Description: Amino-Modifier C2 dT (Glen Research, Sterling, Va.) was incorporated into positions that are equivalent to the positions at which fluorescein-dT and dabcyl-dT has been used previously in CAP2 and CAP4 oligonucleotides, respectively. Amino-Modifier C2 dT contains a reactive aliphatic amino group that can be used to covalently attach any amino-reactive fluorescence probe. CAP5 (SEQ ID NO:7) and CAP6 (SEQ ID NO:8) oligonucleotides were modified with 7-diethylaminocoumarin-3-carboxylic acid, succinimidyl ester. This fluorochrome is excited at 433 nm and the maximum emission occurs at 475 nm providing the possibility of testing the assay with different emission colors. […]
In a second experiment (FIG. 9), the pair of CAP6/CAP1 and CAP2/CAP3 nucleic acid duplexes were tested for the performance in CAP assay. In this assay format, the 7-diethylaminocoumarin-3-carboxylic acid present in the CAP6/CAP1 duplex functioned as a fluorescence donor and the fluorescein present in the CAP2/CAP3 duplex functioned as an acceptor. […] Also, as shown in the inset of FIG. 9, the ratio between the fluorescence intensities at 520 nm and 475 nm may be used to determine the concentration of nucleic acid binding proteins. […]

B1: CAP: bacterial transcription activator from E. coli which binds DNA in a sequence specific, cAMP-dependent manner (protein, UniProt P0ACJ8 2-210, looked up)
DNA-binding transcriptional …: VLGKPQTDPTLEWFLSHCHIHKYPSKSTLIHQGEKAETLYYIVKGSVAVLIKDEEGKEMILSYLNQGDFIGELGLFEEGQERSAWVRAKTACEVAEISYKKFRQLIQVNPDILMRLSAQMARRLQVTSEKVGNLAFLDVTGRIAQTLLNLAKQPDAMTHPDGMQIKITRQEIGQIVGCSRETVGRILKMLEDQNLISAHGKTIVVYGTR
quenching of the 7-diethylaminocoumarin-3-carboxylic acid signal [1]: about 60%
change of emission peaks [2]: pronounced quenching of the peak at 475 nm and a pronounced enhancement of the peak at 520 nm
